The target of experiment [1] is HA-MC4R (wild-type melanocortin 4 receptor, 3x HA tagged) (human) (UniProt P32245).
The target in experiment [2] is HA-MC4R G34A (novel rare variant, 101G>C) (human) (UniProt P32245).

With “α-melanocyte stimulating hormone (peptide)”, the α-MSH EC50 for cAMP production (cAMP immunoassay dose-response, HEK cells stably expressing the receptor, three independent immunoassays) in experiment [1] came out at 0.0411 µM; in experiment [2], 0.043 µM.

The values are drawn from paper PMC3976318.
